Experimental data from PMC2949527 (Journal of molecular biology, 2010).

Molecular target: the molecule itself
Assay: NMR solution structure

B1: RFX5(25-90), oligomerization domain of RFX5 (domain or fragment, UniProt P48382 25-90, looked up)
chain: GEPTTLLQRLRGTISKAVQNKVEGILQDVQKFSDNDKLYLYLQLPSGPTTGDKSSEPSTLSNEEYM
With B1 the “stoichiometry N” value was 2.
